Experimental data published in IntAct's records for PubMed 20562859.

Assays:
atg2a_human ATG2A = atg2a_human ATG2A (UniProt Q2TAZ0)
nips2_human NIPSNAP2 = target: T1, nips2_human NIPSNAP2 (UniProt O75323)
T1 sequence: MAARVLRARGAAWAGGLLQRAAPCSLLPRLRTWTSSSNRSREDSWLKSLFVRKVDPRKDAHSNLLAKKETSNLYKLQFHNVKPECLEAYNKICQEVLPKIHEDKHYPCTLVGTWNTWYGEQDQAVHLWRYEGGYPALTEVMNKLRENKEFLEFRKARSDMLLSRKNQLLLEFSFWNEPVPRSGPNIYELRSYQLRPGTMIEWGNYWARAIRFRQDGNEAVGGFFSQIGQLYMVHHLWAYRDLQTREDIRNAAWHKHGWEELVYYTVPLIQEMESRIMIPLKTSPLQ

kbtb6_human KBTBD6 = target: T2, kbtb6_human KBTBD6 (UniProt Q86V97)
T2 sequence: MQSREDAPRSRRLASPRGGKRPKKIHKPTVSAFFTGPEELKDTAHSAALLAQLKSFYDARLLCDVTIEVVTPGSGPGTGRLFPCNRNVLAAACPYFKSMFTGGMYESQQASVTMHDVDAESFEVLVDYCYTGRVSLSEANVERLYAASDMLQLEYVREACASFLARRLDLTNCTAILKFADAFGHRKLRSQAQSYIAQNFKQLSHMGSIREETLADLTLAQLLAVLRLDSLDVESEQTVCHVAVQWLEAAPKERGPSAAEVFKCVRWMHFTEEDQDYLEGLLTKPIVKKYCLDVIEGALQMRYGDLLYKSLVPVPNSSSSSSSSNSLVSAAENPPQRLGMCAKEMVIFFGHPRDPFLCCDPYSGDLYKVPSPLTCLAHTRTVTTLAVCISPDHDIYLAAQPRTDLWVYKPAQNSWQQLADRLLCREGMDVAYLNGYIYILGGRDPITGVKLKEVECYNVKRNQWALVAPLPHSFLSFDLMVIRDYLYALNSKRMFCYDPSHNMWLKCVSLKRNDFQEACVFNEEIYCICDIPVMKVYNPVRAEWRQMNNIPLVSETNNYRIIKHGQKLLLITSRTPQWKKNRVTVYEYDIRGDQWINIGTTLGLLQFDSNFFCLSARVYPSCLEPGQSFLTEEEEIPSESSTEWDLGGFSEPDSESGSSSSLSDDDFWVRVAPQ

tcpr2_human TECPR2 = target: T3, tcpr2_human TECPR2 (UniProt O15040)
T3 sequence: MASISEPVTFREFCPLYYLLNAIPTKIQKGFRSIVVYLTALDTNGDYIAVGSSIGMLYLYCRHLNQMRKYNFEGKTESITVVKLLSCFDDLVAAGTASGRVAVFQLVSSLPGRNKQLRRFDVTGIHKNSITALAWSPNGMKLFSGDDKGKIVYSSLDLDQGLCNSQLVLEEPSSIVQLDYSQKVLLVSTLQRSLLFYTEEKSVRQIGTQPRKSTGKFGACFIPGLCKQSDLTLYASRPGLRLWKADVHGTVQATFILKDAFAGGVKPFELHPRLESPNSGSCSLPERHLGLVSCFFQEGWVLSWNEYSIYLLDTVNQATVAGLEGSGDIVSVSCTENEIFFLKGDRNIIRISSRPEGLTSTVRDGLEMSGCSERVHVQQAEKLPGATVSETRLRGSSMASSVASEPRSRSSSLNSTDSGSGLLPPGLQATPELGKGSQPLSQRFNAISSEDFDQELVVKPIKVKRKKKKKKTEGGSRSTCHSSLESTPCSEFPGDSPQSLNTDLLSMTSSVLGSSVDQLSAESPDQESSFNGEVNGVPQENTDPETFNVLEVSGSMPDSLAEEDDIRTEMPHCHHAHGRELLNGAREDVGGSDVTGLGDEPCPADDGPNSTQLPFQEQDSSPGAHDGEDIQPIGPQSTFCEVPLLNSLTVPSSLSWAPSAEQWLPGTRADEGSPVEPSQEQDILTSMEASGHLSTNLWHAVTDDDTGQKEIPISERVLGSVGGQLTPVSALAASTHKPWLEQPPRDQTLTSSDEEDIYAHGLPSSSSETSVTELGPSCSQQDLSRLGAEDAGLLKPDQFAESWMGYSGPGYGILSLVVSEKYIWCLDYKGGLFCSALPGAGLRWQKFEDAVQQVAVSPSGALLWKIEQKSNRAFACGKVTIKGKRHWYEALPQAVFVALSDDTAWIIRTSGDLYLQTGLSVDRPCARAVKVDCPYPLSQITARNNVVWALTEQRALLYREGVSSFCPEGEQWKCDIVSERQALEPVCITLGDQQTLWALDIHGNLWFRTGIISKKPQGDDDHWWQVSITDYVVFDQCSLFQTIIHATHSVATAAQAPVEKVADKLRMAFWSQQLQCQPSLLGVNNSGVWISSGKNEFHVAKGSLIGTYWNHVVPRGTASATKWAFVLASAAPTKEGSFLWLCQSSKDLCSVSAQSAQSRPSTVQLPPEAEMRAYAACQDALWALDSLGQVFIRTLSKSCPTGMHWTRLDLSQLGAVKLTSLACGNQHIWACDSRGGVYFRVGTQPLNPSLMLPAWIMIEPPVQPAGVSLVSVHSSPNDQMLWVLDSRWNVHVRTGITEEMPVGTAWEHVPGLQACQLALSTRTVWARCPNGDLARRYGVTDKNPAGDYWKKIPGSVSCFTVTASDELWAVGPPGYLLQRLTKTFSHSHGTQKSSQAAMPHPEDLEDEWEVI

stk3_human STK3 = target: T4, stk3_human STK3 (UniProt Q13188)
T4 sequence: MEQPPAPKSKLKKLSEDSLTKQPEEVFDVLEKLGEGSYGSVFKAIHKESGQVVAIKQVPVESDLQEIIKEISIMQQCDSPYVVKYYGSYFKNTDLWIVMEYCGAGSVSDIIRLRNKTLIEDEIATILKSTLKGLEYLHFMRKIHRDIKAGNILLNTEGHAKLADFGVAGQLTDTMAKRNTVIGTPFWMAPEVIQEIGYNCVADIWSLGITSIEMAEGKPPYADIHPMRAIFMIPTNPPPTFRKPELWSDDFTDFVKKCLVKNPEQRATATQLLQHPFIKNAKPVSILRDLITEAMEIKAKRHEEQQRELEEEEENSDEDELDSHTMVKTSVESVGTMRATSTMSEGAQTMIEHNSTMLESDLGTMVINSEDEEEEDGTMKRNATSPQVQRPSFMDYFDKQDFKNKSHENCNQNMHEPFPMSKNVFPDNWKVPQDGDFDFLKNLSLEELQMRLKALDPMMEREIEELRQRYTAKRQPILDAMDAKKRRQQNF

Chain of atg2a_human ATG2A (Q2TAZ0 whole entry): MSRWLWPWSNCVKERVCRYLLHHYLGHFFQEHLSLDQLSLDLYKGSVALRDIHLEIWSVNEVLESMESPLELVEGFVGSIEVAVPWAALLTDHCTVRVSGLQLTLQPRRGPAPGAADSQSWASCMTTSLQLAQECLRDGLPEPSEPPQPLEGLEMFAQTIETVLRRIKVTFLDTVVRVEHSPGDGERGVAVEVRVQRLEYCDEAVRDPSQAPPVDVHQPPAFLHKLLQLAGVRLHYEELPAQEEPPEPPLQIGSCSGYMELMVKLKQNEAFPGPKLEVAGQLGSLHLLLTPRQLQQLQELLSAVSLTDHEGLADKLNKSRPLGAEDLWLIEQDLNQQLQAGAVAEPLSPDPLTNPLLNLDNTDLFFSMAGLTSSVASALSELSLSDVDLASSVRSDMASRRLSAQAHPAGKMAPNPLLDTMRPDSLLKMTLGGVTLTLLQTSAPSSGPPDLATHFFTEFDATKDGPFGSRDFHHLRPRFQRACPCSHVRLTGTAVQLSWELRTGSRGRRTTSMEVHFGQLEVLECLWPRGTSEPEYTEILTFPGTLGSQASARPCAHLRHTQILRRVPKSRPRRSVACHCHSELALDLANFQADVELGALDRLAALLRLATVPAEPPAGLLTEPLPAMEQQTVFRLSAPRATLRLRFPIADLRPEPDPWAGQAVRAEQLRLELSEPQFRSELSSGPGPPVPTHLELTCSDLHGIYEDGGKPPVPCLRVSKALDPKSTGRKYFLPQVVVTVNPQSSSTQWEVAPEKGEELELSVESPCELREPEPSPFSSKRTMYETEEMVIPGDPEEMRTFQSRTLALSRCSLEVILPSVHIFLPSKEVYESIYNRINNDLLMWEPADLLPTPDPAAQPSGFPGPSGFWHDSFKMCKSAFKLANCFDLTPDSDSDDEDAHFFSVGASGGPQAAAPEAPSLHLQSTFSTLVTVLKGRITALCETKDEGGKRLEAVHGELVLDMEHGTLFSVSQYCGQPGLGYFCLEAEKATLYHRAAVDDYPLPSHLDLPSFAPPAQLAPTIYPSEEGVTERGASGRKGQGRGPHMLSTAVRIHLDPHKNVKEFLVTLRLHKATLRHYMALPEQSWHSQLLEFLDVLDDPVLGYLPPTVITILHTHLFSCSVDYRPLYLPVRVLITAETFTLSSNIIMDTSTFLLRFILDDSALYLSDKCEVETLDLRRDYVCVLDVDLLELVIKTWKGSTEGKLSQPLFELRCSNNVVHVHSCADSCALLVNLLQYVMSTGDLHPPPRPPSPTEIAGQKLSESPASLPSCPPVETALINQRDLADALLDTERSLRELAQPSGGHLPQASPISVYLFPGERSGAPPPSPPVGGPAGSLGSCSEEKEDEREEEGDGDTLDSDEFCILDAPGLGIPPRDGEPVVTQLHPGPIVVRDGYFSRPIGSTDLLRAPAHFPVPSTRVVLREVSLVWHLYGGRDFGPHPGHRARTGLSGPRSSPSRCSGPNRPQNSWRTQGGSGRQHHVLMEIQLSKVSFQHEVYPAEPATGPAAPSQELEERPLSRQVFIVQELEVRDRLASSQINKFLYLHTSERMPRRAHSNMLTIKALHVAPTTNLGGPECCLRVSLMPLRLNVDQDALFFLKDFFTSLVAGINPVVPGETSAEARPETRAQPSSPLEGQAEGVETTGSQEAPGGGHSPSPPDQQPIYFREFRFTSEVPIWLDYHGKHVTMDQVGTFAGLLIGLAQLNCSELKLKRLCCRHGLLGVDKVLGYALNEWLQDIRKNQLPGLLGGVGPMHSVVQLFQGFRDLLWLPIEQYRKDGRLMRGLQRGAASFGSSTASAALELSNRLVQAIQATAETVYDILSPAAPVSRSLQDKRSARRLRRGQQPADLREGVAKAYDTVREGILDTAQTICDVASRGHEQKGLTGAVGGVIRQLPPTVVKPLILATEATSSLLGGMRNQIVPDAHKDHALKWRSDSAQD

Substance | effect of a mutation on the interaction (atg2a_human ATG2A) | effect of a mutation on the interaction (nips2_human NIPSNAP2) | effect of a mutation on the interaction (kbtb6_human KBTBD6) | effect of a mutation on the interaction (tcpr2_human TECPR2) | effect of a mutation on the interaction (stk3_human STK3)
Microtubule-associated protein 1 light chain 3 beta (Homo sapiens) (from UniProt Q9GZQ8) R69A | decreasing interaction | decreasing interaction | disrupting interaction | disrupting interaction | decreasing interaction
Microtubule-associated protein 1 light chain 3 beta (Homo sapiens) (from UniProt Q9GZQ8) F52A;L53A | increasing interaction | increasing interaction | decreasing interaction | decreasing interaction | increasing interaction
